# Data from US20240132485A1, “HETEROCYCLIC CULLIN RING UBIQUITIN LIGASE COMPOUNDS AND USES THEREOF” (CEMM - FORSCHUNGSZENTRUM FÜR MOLEKULARE MEDIZIN GMBH, priority 2020, published 2024).
# Legend:
# [1] = target: Nanoluc_DDB1 (N-terminal Nanoluc luciferase, G4S linker, DDB1 (FL)) (UniProt Q16531); experiment: NanoBRET in HEK293T cells, 10-point titration of compound Example 3-1; class A = EC50<=0.25 µM
# [2] = target: Nanoluc_DDB1 (N-terminal Nanoluc luciferase, G4S linker, DDB1 (FL)) (UniProt Q16531); experiment: NanoBRET in HEK293T cells, 10 µM compound Example 3-34; class C = 2-3 fold increase
# [3] = target: Nanoluc_DDB1 (N-terminal Nanoluc luciferase, G4S linker, DDB1 (FL)) (UniProt Q16531); experiment: NanoBRET in HEK293T cells, 10 µM compound Example 3-23; class B = 3-4 fold increase
# [4] = target: Nanoluc_DDB1 (N-terminal Nanoluc luciferase, G4S linker, DDB1 (FL)) (UniProt Q16531); experiment: NanoBRET in HEK293T cells, 10 µM compound Example 3-43; class A = greater than 4-fold increase
# [5] = target: Nanoluc_DDB1 (N-terminal Nanoluc luciferase, G4S linker, DDB1 (FL)) (UniProt Q16531); experiment: NanoBRET in HEK293T cells, 10 µM compound Example 3-42; class A = greater than 4-fold increase
# [6] = target: Nanoluc_DDB1 (N-terminal Nanoluc luciferase, G4S linker, DDB1 (FL)) (UniProt Q16531); experiment: NanoBRET in HEK293T cells, 10 µM compound Example 3-21; class B = 3-4 fold increase
# [7] = target: Nanoluc_DDB1 (N-terminal Nanoluc luciferase, G4S linker, DDB1 (FL)) (UniProt Q16531); experiment: NanoBRET in HEK293T cells, 10 µM compound Example 3-55; class B = 3-4 fold increase
# [8] = target: Nanoluc_DDB1 (N-terminal Nanoluc luciferase, G4S linker, DDB1 (FL)) (UniProt Q16531); experiment: NanoBRET in HEK293T cells, 10-point titration of compound Example 3-22; class E = >10 µM
# [9] = target: Nanoluc_DDB1 (N-terminal Nanoluc luciferase, G4S linker, DDB1 (FL)) (UniProt Q16531); experiment: NanoBRET in HEK293T cells, 10 µM compound Example 3-7; class B = 3-4 fold increase
# [10] = target: Nanoluc_DDB1 (N-terminal Nanoluc luciferase, G4S linker, DDB1 (FL)) (UniProt Q16531); experiment: NanoBRET in HEK293T cells, 10 µM compound Example 3-27; class B = 3-4 fold increase
# [11] = target: Nanoluc_DDB1 (N-terminal Nanoluc luciferase, G4S linker, DDB1 (FL)) (UniProt Q16531); experiment: NanoBRET in HEK293T cells, 10-point titration of compound Example 3-66; class A = EC50<=0.25 µM
# [12] = target: Nanoluc_DDB1 (N-terminal Nanoluc luciferase, G4S linker, DDB1 (FL)) (UniProt Q16531); experiment: NanoBRET in HEK293T cells, 10 µM compound Example 3-45; class A = greater than 4-fold increase
# [13] = target: Nanoluc_DDB1 (N-terminal Nanoluc luciferase, G4S linker, DDB1 (FL)) (UniProt Q16531); experiment: NanoBRET in HEK293T cells, 10-point titration of compound Example 3-43; class A = EC50<=0.25 µM
# [14] = target: Nanoluc_DDB1 (N-terminal Nanoluc luciferase, G4S linker, DDB1 (FL)) (UniProt Q16531); experiment: NanoBRET in HEK293T cells, 10 µM compound Example 3-59; class C = 2-3 fold increase
# [15] = target: Nanoluc_DDB1 (N-terminal Nanoluc luciferase, G4S linker, DDB1 (FL)) (UniProt Q16531); experiment: NanoBRET in HEK293T cells, 10-point titration of compound Example 3-14; class A = EC50<=0.25 µM
# [16] = target: Nanoluc_DDB1 (N-terminal Nanoluc luciferase, G4S linker, DDB1 (FL)) (UniProt Q16531); experiment: NanoBRET in HEK293T cells, 10 µM compound Example 3-24; class B = 3-4 fold increase
# [17] = target: Nanoluc_DDB1 (N-terminal Nanoluc luciferase, G4S linker, DDB1 (FL)) (UniProt Q16531); experiment: NanoBRET in HEK293T cells, 10 µM compound Example 3-31; class C = 2-3 fold increase
# [18] = target: Nanoluc_DDB1 (N-terminal Nanoluc luciferase, G4S linker, DDB1 (FL)) (UniProt Q16531); experiment: NanoBRET in HEK293T cells, 10 µM compound Example 3-46; class B = 3-4 fold increase
# [19] = target: Nanoluc_DDB1 (N-terminal Nanoluc luciferase, G4S linker, DDB1 (FL)) (UniProt Q16531); experiment: NanoBRET in HEK293T cells, 10 µM compound Example 3-10; class C = 2-3 fold increase
# [20] = target: Nanoluc_DDB1 (N-terminal Nanoluc luciferase, G4S linker, DDB1 (FL)) (UniProt Q16531); experiment: NanoBRET in HEK293T cells, 10 µM compound Example 3-9; class A = greater than 4-fold increase
# [21] = target: Nanoluc_DDB1 (N-terminal Nanoluc luciferase, G4S linker, DDB1 (FL)) (UniProt Q16531); experiment: NanoBRET in HEK293T cells, 10 µM compound Example 3-17; class A = greater than 4-fold increase
# [22] = target: Nanoluc_DDB1 (N-terminal Nanoluc luciferase, G4S linker, DDB1 (FL)) (UniProt Q16531); experiment: NanoBRET in HEK293T cells, 10 µM compound Example 3-65; class B = 3-4 fold increase
# [23] = target: Nanoluc_DDB1 (N-terminal Nanoluc luciferase, G4S linker, DDB1 (FL)) (UniProt Q16531); experiment: NanoBRET in HEK293T cells, 10-point titration of compound Example 3-63; class E = >10 µM
# [24] = target: Nanoluc_DDB1 (N-terminal Nanoluc luciferase, G4S linker, DDB1 (FL)) (UniProt Q16531); experiment: NanoBRET in HEK293T cells, 10 µM compound Example 3-60; class C = 2-3 fold increase
# [25] = target: Nanoluc_DDB1 (N-terminal Nanoluc luciferase, G4S linker, DDB1 (FL)) (UniProt Q16531); experiment: NanoBRET in HEK293T cells, 10 µM compound Example 3-28; class B = 3-4 fold increase
# Nanoluc_DDB1 (N-terminal Nanoluc luciferase, G4S linker, DDB1 (FL)), sequence (Q16531 other isoform, or with tags, fused parts or gaps): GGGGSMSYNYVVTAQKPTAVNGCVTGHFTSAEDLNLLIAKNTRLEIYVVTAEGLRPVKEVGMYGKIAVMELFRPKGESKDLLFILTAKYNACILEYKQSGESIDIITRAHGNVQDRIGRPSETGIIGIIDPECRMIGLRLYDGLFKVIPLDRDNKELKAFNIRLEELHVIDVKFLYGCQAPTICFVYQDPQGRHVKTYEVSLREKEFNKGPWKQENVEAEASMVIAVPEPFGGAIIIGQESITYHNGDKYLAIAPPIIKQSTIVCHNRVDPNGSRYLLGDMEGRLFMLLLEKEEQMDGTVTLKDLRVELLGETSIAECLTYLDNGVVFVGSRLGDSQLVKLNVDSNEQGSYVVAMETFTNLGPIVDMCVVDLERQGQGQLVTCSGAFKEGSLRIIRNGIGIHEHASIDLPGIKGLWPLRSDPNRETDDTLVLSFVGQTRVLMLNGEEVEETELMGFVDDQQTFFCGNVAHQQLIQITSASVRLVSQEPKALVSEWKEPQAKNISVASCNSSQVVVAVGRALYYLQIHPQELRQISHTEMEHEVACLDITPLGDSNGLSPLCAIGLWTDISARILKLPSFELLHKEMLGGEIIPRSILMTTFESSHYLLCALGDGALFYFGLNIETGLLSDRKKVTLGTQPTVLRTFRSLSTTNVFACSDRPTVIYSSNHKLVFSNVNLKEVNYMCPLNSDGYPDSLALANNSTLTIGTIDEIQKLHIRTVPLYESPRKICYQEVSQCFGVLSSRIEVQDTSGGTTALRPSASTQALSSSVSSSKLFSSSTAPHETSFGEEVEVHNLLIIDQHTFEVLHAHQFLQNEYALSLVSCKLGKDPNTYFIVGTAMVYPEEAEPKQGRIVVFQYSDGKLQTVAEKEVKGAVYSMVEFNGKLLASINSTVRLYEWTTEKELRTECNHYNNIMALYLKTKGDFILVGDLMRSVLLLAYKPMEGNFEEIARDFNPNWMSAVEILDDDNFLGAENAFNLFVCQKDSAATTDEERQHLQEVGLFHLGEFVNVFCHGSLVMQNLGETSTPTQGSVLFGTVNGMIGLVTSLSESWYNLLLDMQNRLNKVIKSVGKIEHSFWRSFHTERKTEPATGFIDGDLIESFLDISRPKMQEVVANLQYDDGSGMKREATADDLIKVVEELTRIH
substance,measurement,setting,value
"HaloTag_CDK12 (N-terminal HaloTag, G4S linker, CDK12 (713-1052)) (from UniProt Q9NYV4 713-1052) (enzyme)",EC50,[1],< 250 nM
same,NanoBRET fold increase,[2],2 to 3 fold
same,NanoBRET fold increase,[3],3 to 4 fold
same,NanoBRET fold increase,[4],> 4 fold
same,NanoBRET fold increase,[5],> 4 fold
same,NanoBRET fold increase,[6],3 to 4 fold
same,NanoBRET fold increase,[7],3 to 4 fold
same,EC50,[8],> 10000 nM
same,NanoBRET fold increase,[9],3 to 4 fold
same,NanoBRET fold increase,[10],3 to 4 fold
same,EC50,[11],< 250 nM
same,NanoBRET fold increase,[12],> 4 fold
same,EC50,[13],< 250 nM
same,NanoBRET fold increase,[14],2 to 3 fold
same,EC50,[15],< 250 nM
same,NanoBRET fold increase,[16],3 to 4 fold
same,NanoBRET fold increase,[17],2 to 3 fold
same,NanoBRET fold increase,[18],3 to 4 fold
same,NanoBRET fold increase,[19],2 to 3 fold
same,NanoBRET fold increase,[20],> 4 fold
same,NanoBRET fold increase,[21],> 4 fold
same,NanoBRET fold increase,[22],3 to 4 fold
same,EC50,[23],> 10000 nM
same,NanoBRET fold increase,[24],2 to 3 fold
same,NanoBRET fold increase,[25],3 to 4 fold
